Results on two variants are retold here after article PMC4396693, “Structural Basis of Latrophilin-FLRT Interaction” (Structure(London, England:1993), 2015).

B1: murine LPHN3^Lec-Olf, wild type, biotinylated at a C-terminal Avi-Tag [modified: biotin on the C-terminal Avi-Tag (enzymatic); biotin on the C-terminal Avi-Tag (enzymatic)] [murine] / murine FLRT2 full ectodomain, wild … (parent)
chain 1: PIPMAVVRRELSCESYPIELRCPGTDVIMIESANYGRTDDKICDSDPAQMENIRCYLPDAYKIMSQRCNNRTQCAVVAGPDVFPDPCPGTYKYLEVQYECVPYKVEQKVFLCPGLLKGVYQSEHLFESDHQSGAWCKDPLQASDKIYYMPWTPYRTDTLTEYSSKDDFIAGRPTTTYKLPHRVDGTGFVVYDGALFFNKERTRNIVKFDLRTRIKSGEAIIANANYHDTSPYRWGGKSDIDLAVDENGLWVIYATEQNNGKIVISQLNPYTLRIEGTWDTAYDKRSASNAFMICGILYVVKSVYEDDDNEATGNKIDYIYNTDQSKDSLVDVPFPNSYQYIAAVDYNPRDNLLYVWNNYHVVKYSLDFGPLD
chain 2: ACPSVCRCDRNFVYCNERSLTSVPLGIPEGVTVLYLHNNQINNAGFPAELHNVQSVHTVYLYGNQLDEFPMNLPKNVRVLHLQENNIQTISRAALAQLLKLEELHLDDNSISTVGVEDGAFREAISLKLLFLSKNHLSSVPVGLPVDLQELRVDENRIAVISDMAFQNLTSLERLIVDGNLLTNKGIAEGTFSHLTKLKEFSIVRNSLSHPPPDLPGTHLIRLYLQDNQINHIPLTAFANLRKLERLDISNNQLRMLTQGVFDHLSNLKQLTARNNPWFCDCSIKWVTEWLKYIPSSLNVRGFMCQGPEQVRGMAVRELNMNLLSCPTTTPGLPVFTPAPSTVSPTTQSPTLSVPSPSRGSVPPAPTPSKLPTIPDWDGRERVTPPISERIQLSIHFVNDTSIQVSWLSLFTVMAYKLTWVKMGHSLVGGIVQERIVSGEKQHLSLVNLEPRSTYRICLVPLDAFNYRTVEDTICSEATTHASYLNNGSNTASSHEQTTSHSMGSP

In the assay the parent is B1. The experiment in a line: SPR. The settings on record: with murine FLRT2 full ectodomain; for Kd: biotinylated LPHN3 Lec-Olf immobilized on streptavidin-coated Biacore chips, FLRT2 ectodomain injected as analyte, 1:1 binding model, parent: 18 nM; for response: maximum response at the highest FLRT2 ectodomain concentration plotted (about 2.3 µM), parent: 450, read off a plot. A general note: SPR reads the build-up and loss of mass on a sensor chip optically.

Broadly, the Kd is the concentration at which binding is half-saturated. chain 1 PIPMAVVRRELSCESYPIELRCPGTDVIMIESANYGRTDDKICDSDPAQMENIRCYLPDAYKIMSQRCNNRTQCAVVAGPDVFPDPCPGTYKYLEVQYECVPYKVEQKVFLCPGLLKGVYQSEHLFESDHQSGAWCKDPLQASDKIYYMPWTPYRTDTLTEYSSKDDFIAGRPTTNYTLPHRVDGTGFVVYDGALFFNKERTRNIVKFDLRTRIKSGEAIIANANYHDTSPYRWGGKSDIDLAVDENGLWVIYATEQNNGKIVISQLNPYTLRIEGTWDTAYDKRSASNAFMICGILYVVKSVYEDDDNEATGNKIDYIYNTDQSKDSLVDVPFPNSYQYIAAVDYNPRDNLLYVWNNYHVVKYSLDFGPLD [chain 1 T176N K178T]: the Kd amounted to 460 nM and the response was 400 RU.

Consider chain 1 PIPMAVVRRELSCESYPIELRCPGTDVIMIESANYGRTDDKICDSDPAQMENIRCYLPDAYKIMSQRCNNRTQCAVVAGPDVFPDPCPGTYKYLEVQYECVPYKVEQKVFLCPGLLKGVYQSEHLFESDHQSGAWCKDPLQASDKIYYMPWTNYTTDTLTEYSSKDDFIAGRPTTTYKLPHRVDGTGFVVYDGALFFNKERTRNIVKFDLRTRIKSGEAIIANANYHDTSPYRWGGKSDIDLAVDENGLWVIYATEQNNGKIVISQLNPYTLRIEGTWDTAYDKRSASNAFMICGILYVVKSVYEDDDNEATGNKIDYIYNTDQSKDSLVDVPFPNSYQYIAAVDYNPRDNLLYVWNNYHVVKYSLDFGPLD [chain 1 P153N R155T], for which the Kd was 980 nM and the response was found to be 460 RU.
